Source: patent publication US20080176263

Key:
[1] = molecular target: T1, TNO211 peptide (DABCYL-GABA-Pro-Gln-Gly-Leu-Glu(EDANS)-Ala-Lys-NH2)
T1 chain: PQGLEAK

B1: MMP-2 (protein)
chain: YNFFPRKPKWDKNQITYRIIGYTPDLDPETVDDAFARAFQVWSDVTPLRFSRIHDGEADIMINFGRWEHGDGYPFDGKDGLLAHAFAPGTGVGGDSHFDDDELWTLGEGQVVRVKYGNADGEYCKFPFLFNGKEYNSCTDTGRSDGFLWCSTTYNFEKDGKYGFCPHEALFTMGGNAEGQPCKFPFRFQGTSYDSCTTEGRTDGYRWCGTTEDYDRDKKYGFCPETAMSTVGGNSEGAPCVFPFTFLGNKYESCTSAGRSDGKMWCATTANYDDDRKWGFCPDQGYSLFLVAAHEFGHAMGLEHSQDPGALMAPIYTYTKNFRLSQDDIKGIQELYGASPDIDLGTGPTPTLGPVTPEICKQDIVFDGIAQIRGEIFFFKDRFIWRTVTPRDKPMGPLLVATFWPELPEKIDAVYEAPQEEKAVFFAGNEYWIYSASTLERGYPKPLTSLGLPPDVQRVDAAFNWSKNKKTYIFAGDKFWRYNEVKKKMDPGFPKLIADAWNAIPDNLDAVVDLQGGGHSYFFKGAYYLKLENQSLKSVKFGSIKSDWLGC
protease activity (fluorescence from cleavage of substrate TNO211), relative to pronase [1]: 17±4%

B2: proteinase K (protein)
chain: AAQTNAPWGLARISSTSPGTSTYYYDESAGQGSCVYVIDTGIEASHPEFEGRAQMVKTYYYSSRDGNGHGTHCAGTVGSRTYGVAKKTQLFGVKVLDDNGSGQYSTIIAGMDFVASDKNNRNCPKGVVASLSLGGGYSSSVNSAAARLQSSGVMVAVAAGNNNADARNYSPASEPSVCTVGASDRYDRRSSFSNYGSVLDIFGPGTSILSTWIGGSTRSISGTSMATPHVAGLAAYLMTLGKTTAASACRYIADTANKGDLSNIPFGTVNLLAYNNYQA
cleavage of the dye-labelled immobilized substrate (color generation) (RH substrate): none of the enzyme preparations were successful in cleaving the RH substrate | visible color from cleavage of the dye-labelled immobilized substrate (Substrate AA): AA substrate reacted with pronase and proteinase K did produce a visible color within 2.5 h at 37 °C
